Laboratory results from the supplement of paper PMC9233669.
Variants at the floor of the assay were thinned out.

Tests used:
biotinyl-Phe-oxazolone = assay: self-aminoacylation, catalytic enhancement (BFO) (fold over background); higher = more active; k-Seq, kA / k0A0; sequences stand for … in GGGAAUGGAUCCACAUCUACGAAUUC…UUCACUGCAGACUUGACGAAGCUG
Outline: (§1)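 Mutagenized RNA pools (0.43 μM; 21-nt variable region) were treated with 2–1250 μM of each biotinyl-aminoacyl-oxazolone. Conditions were 50 μL HEPES/NaCl/KCl/MgCl2/CaCl2 buffer, 5% acetonitrile, pH 6.9–7.0, room temperature, 90 minutes. Catalytic enhancement, the median kA relative to the uncatalyzed rate, was derived from streptavidin capture, qPCR and Illumina sequencing.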

biotinyl-Ile-oxazolone = assay: self-aminoacylation, catalytic enhancement (BIO) (fold over background); higher = more active; k-Seq, kA / k0A0; sequences stand for … in GGGAAUGGAUCCACAUCUACGAAUUC…UUCACUGCAGACUUGACGAAGCUG
Outline: as §1

biotinyl-Met-oxazolone = assay: self-aminoacylation, catalytic enhancement (BMO) (fold over background); higher = more active; k-Seq, kA / k0A0; sequences stand for … in GGGAAUGGAUCCACAUCUACGAAUUC…UUCACUGCAGACUUGACGAAGCUG
Outline: as §1

biotinyl-Val-oxazolone = assay: self-aminoacylation, catalytic enhancement (BVO) (fold over background); higher = more active; k-Seq, kA / k0A0; sequences stand for … in GGGAAUGGAUCCACAUCUACGAAUUC…UUCACUGCAGACUUGACGAAGCUG
Outline: as §1

biotinyl-Leu-oxazolone = assay: self-aminoacylation, catalytic enhancement (BLO) (fold over background); higher = more active; k-Seq, kA / k0A0; sequences stand for … in GGGAAUGGAUCCACAUCUACGAAUUC…UUCACUGCAGACUUGACGAAGCUG
Outline: as §1

biotinyl-Trp-oxazolone = assay: self-aminoacylation, catalytic enhancement (BWO) (fold over background); higher = more active; k-Seq, kA / k0A0; sequences stand for … in GGGAAUGGAUCCACAUCUACGAAUUC…UUCACUGCAGACUUGACGAAGCUG
Outline: as §1

In the case of “CCACAUUUCAAGCAUUCGGUC [Fam1B.1 aminoacylation ribozyme variant]”, the self-aminoacylation (biotinyl-Phe-oxazolone) is reported as 1.3, the self-aminoacylation (biotinyl-Ile-oxazolone) is reported as 1.92 and the self-aminoacylation (biotinyl-Met-oxazolone) is reported as 1.65. It also gave a self-aminoacylation (biotinyl-Val-oxazolone) of 1.96, a self-aminoacylation (biotinyl-Leu-oxazolone) of 1.64 and a self-aminoacylation (biotinyl-Trp-oxazolone) of 1.56.

Work on “CCACAUUUCAAGGAAUCGGUC [Fam1B.1 aminoacylation ribozyme variant]” yielded a self-aminoacylation (biotinyl-Phe-oxazolone) of 1.67, a self-aminoacylation (biotinyl-Ile-oxazolone) of 1.52 and a self-aminoacylation (biotinyl-Met-oxazolone) of 1.34. It also gave a self-aminoacylation (biotinyl-Val-oxazolone) of 1.31, a self-aminoacylation (biotinyl-Leu-oxazolone) of 1.49 and a self-aminoacylation (biotinyl-Trp-oxazolone) of 1.28.

“CCACCCUUCAACCAAUCGGUC [Fam1B.1 aminoacylation ribozyme variant]” was tested, and the self-aminoacylation (biotinyl-Phe-oxazolone) was 46, the self-aminoacylation (biotinyl-Ile-oxazolone) was 1.19 and the self-aminoacylation (biotinyl-Met-oxazolone) was 1.35. It also gave a self-aminoacylation (biotinyl-Val-oxazolone) of 1.47, a self-aminoacylation (biotinyl-Leu-oxazolone) of 1.44 and a self-aminoacylation (biotinyl-Trp-oxazolone) of 26.2.

In the case of “CCACCGUUCAAGCAAUCGGUC [Fam1B.1 aminoacylation ribozyme variant]”, the self-aminoacylation (biotinyl-Phe-oxazolone) is reported as 1.27, the self-aminoacylation (biotinyl-Ile-oxazolone) is reported as 1 and the self-aminoacylation (biotinyl-Met-oxazolone) is reported as 0.827. For the same sequence, the self-aminoacylation (biotinyl-Val-oxazolone) was 1.41, the self-aminoacylation (biotinyl-Leu-oxazolone) was 0.983 and the self-aminoacylation (biotinyl-Trp-oxazolone) was 1.11.

Sequence “CCACGCUACAAGCAAUCGGUC [Fam1B.1 aminoacylation ribozyme variant]” has a self-aminoacylation (biotinyl-Phe-oxazolone) of 1.3, a self-aminoacylation (biotinyl-Ile-oxazolone) of 0.937 and a self-aminoacylation (biotinyl-Met-oxazolone) of 0.858. It also gave a self-aminoacylation (biotinyl-Val-oxazolone) of 0.999, a self-aminoacylation (biotinyl-Leu-oxazolone) of 0.851 and a self-aminoacylation (biotinyl-Trp-oxazolone) of 1.2.

With “CCACGCUCCAAGCAAUCGGUC [Fam1B.1 aminoacylation ribozyme variant]” the self-aminoacylation (biotinyl-Phe-oxazolone) was 12.6, the self-aminoacylation (biotinyl-Ile-oxazolone) was 1.13 and the self-aminoacylation (biotinyl-Met-oxazolone) was 1.07. The self-aminoacylation (biotinyl-Val-oxazolone) was 1.47, the self-aminoacylation (biotinyl-Leu-oxazolone) was 1.11 and the self-aminoacylation (biotinyl-Trp-oxazolone) was 9.91.

For “CCACGCUUAAAGCAAUCGGUC [Fam1B.1 aminoacylation ribozyme variant]”, the self-aminoacylation (biotinyl-Phe-oxazolone) was 0.884, the self-aminoacylation (biotinyl-Ile-oxazolone) was 0.96 and the self-aminoacylation (biotinyl-Met-oxazolone) was 0.741. It also gave a self-aminoacylation (biotinyl-Val-oxazolone) of 1.02, a self-aminoacylation (biotinyl-Leu-oxazolone) of 0.752 and a self-aminoacylation (biotinyl-Trp-oxazolone) of 0.646.

In the case of “CCACGCUUCAAGAAAUCGGUC [Fam1B.1 aminoacylation ribozyme variant]”, the self-aminoacylation (biotinyl-Phe-oxazolone) is reported as 10.3, the self-aminoacylation (biotinyl-Ile-oxazolone) is reported as 0.895 and the self-aminoacylation (biotinyl-Met-oxazolone) is reported as 0.772. It also gave a self-aminoacylation (biotinyl-Val-oxazolone) of 0.945, a self-aminoacylation (biotinyl-Leu-oxazolone) of 1.19 and a self-aminoacylation (biotinyl-Trp-oxazolone) of 8.12.

“CCACGCUUCAAGCAAUCCGUC [Fam1B.1 aminoacylation ribozyme variant]” gave a self-aminoacylation (biotinyl-Phe-oxazolone) of 1.34, a self-aminoacylation (biotinyl-Ile-oxazolone) of 0.754 and a self-aminoacylation (biotinyl-Met-oxazolone) of 0.507. For the same sequence, the self-aminoacylation (biotinyl-Val-oxazolone) was 1.1, the self-aminoacylation (biotinyl-Leu-oxazolone) was 0.648 and the self-aminoacylation (biotinyl-Trp-oxazolone) was 1.07.

“CCACGCUUCAAGCAAUCGGUU [Fam1B.1 aminoacylation ribozyme variant]” showed a self-aminoacylation (biotinyl-Phe-oxazolone) of 20, a self-aminoacylation (biotinyl-Ile-oxazolone) of 1.33 and a self-aminoacylation (biotinyl-Met-oxazolone) of 1.44. It also gave a self-aminoacylation (biotinyl-Val-oxazolone) of 1.93, a self-aminoacylation (biotinyl-Leu-oxazolone) of 1.92 and a self-aminoacylation (biotinyl-Trp-oxazolone) of 16.7.

“CCACGCUUCAAGCAGUCGGUC [Fam1B.1 aminoacylation ribozyme variant]” gave a self-aminoacylation (biotinyl-Phe-oxazolone) of 1, a self-aminoacylation (biotinyl-Ile-oxazolone) of 0.755 and a self-aminoacylation (biotinyl-Met-oxazolone) of 1.03. For the same sequence, the self-aminoacylation (biotinyl-Val-oxazolone) was 1.33, the self-aminoacylation (biotinyl-Leu-oxazolone) was 0.887 and the self-aminoacylation (biotinyl-Trp-oxazolone) was 0.91.

“CCACGCUUCAAGCGAUCGGUC [Fam1B.1 aminoacylation ribozyme variant]” showed a self-aminoacylation (biotinyl-Phe-oxazolone) of 2.6, a self-aminoacylation (biotinyl-Ile-oxazolone) of 0.888 and a self-aminoacylation (biotinyl-Met-oxazolone) of 1.14. The self-aminoacylation (biotinyl-Val-oxazolone) was 1.2, the self-aminoacylation (biotinyl-Leu-oxazolone) was 1.05 and the self-aminoacylation (biotinyl-Trp-oxazolone) was 3.3.

“CCACGCUUCAGGCAAUCGGUC [Fam1B.1 aminoacylation ribozyme variant]” was tested, and the self-aminoacylation (biotinyl-Phe-oxazolone) was 1.41, the self-aminoacylation (biotinyl-Ile-oxazolone) was 1.22 and the self-aminoacylation (biotinyl-Met-oxazolone) was 1.35. The self-aminoacylation (biotinyl-Val-oxazolone) was 1.77, the self-aminoacylation (biotinyl-Leu-oxazolone) was 1.39 and the self-aminoacylation (biotinyl-Trp-oxazolone) was 1.35.
